According to publication doi:10.1101/2023.03.10.532066:
Where a chain is given by its changes, count along the chain named.

T1: GLK2 (Arabidopsis thaliana, UniProt Q9FFH0 1-386)
T1 sequence: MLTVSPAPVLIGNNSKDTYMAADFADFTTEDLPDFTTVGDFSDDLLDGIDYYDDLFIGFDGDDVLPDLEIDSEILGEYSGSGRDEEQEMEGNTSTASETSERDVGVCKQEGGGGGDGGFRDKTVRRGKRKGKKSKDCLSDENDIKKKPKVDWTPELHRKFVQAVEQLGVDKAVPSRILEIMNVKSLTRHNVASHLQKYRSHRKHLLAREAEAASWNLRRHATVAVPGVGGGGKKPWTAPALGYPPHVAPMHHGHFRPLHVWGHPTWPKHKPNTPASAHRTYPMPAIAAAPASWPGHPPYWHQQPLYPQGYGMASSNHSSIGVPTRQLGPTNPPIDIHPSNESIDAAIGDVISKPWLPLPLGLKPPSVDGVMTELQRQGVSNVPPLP

B1: pDFR-p1m (mpDFR-D-EMSA) (dsDNA)
DNA 1: ATACCAACACTAAAAAAAAAAAAAAAAAAACATAGAAGAAGAGAGCCAC
DNA 2: GTGGCTCTCTTCTTCTATGTTTTTTTTTTTTTTTTTTTAGTGTTGGTAT
B2: TTG1 probe (pTTG1-A-EMSA) (dsDNA)
DNA 1: TCTTTTTTGTCTTCTTATGTGATATCAAATTTTATGATCT
DNA 2: AGATCATAAAATTTGATATCACATAAGAAGACAAAAAAGA
B3: pTTG1m (mpTTG1-A-EMSA) (dsDNA)
DNA 1: B2 DNA 1 with G21A, T23A, T25A, C26A
DNA 2: B2 DNA 2 with G15T, A16T, A18T, C20T

What was measured:
[1] = molecular target: T1, GLK2; test: competition
[2] = molecular target: T1, GLK2; test: EMSA

Row | Binder | binding result [1] | binding result [2]
1 | B1 | no binding | –
2 | B2 | – | binds
3 | B3 | – | no binding
